The source of these data is US20250027068.

The chains are these.
B1: PRT-17 (protein)
chain: MANQEIRYSEVTPYHITSVWTKGVTPPTNFTQGEDVFHAPYKANQGWYDITKTFNGKDDLLCGAATAGNMLHWWFDQNKEEIERYLKEHPEKQKINFNGEQMFDVKEAIDTKGSQTDSKLFNYFKDKAFPYLSTKHLGVFPDHVLDMFINGYRLSLTNHGPTPVKEQSKDPRGGIFDAVFTRGDQSKLLTSRHDFKEKNLKEISDLIKKELTEGKALGLSHTYANVRINHVINLWGADFDSEGNLEAIYVTDSDSNASIGMKKYFVGVNSAGKVAISAKEIKGDNIGAQVLGLFTLSTGQDIWEKTN
B2: PRT-16 (protein)
chain: MANQEIRYSEETPYHITSVWTKGVTPPTDFTQGEDVFHAPYVANQGWYDITKTFNGKDDLLCGAATAGNMLHWWFDQNKDQIERYLKKHPEKQKINFNGEQMFDVKEAIDTKDSQTDSKLFEYFKDKAFPYLSTKHLGVFPDHVLDMFINGYRLNLTNHGPTPVKEGSKDPRGGIFDAVFTRGDQSKLLTSRHDFKEKNLKEISDLIKQELQEGKALGLSHTYANVRINHVINLWGADFDSNGNLKAIYVTDSDSNASIGMKKYYVGVNAAGKVAISAKEIEEDNIGAQVLGLFTLSLGQDIWNQTN
B3: PRT-15 (protein)
chain: MANQEIRYSEVTPYTITSVWTKGVTPPTNFTQGEDVFHAPYVANQGWYDITKTFNGKDDLLCGAATAGNMLHWWFDQNKDEIERYLKEHPEKQKINFNGEQMFDVKEAIDTKDSQTDSKLFEYFKDKAFPYLSTKHLGVFPDHVIDMFINGYRLSLTNHGPTPVKRGSKDPRGGIFDAVFTRGDQSKLLTSRHDFKEKNLNEISDLIKQELTEGKALGLSHTYANVRINHVINLWGADFNSNGNLKAIYVTDSDSNASIGMKKYFVGVNKAGKVAISAKEIKGDNIGAQVLGLFTLSTGQDIWEQTN
B4: PRT-159 (protein)
chain: MANQEIRYSEVTPYHVTSVWTKGVTPPTDFIKGEDVFHAPYKAGQGWYDITKTFNGKDDLLCGAATAGNMLHWWFDQNKDQIKRYLEEHPEKQKINFNGEQMFDVKEAIDTKNHQLDSKLFEYFKEKAFPYLSTKHLGVFPDHVIDMFINGYRLSLTNHGPTPVKEGSKDPRGGIFDAVFTRGDQSKLLTSRHDFKEKNLKEISDLIKKELQEGKALGLSHTYANVRINHVINLWGADFDSNGNLKAIYVTDSDSNASIGMKKYFVGVNSAGKVAISAKEIKEDNIGAQVLGLFTLSTGQDSWNQTN
B5: PRT-160 (protein)
chain: MANQEIRYSEVTPYHVTTVWTDGVKPPTDFIKGEDVFHAPYKAHQGWYDITKTFNGKDDLLCGAATAGNMLHWWFDQNKDQIKRYLEEHPEKQKINFNGEQMFDVKEAIDTKNHQLDSKLFEYFKEKAFPYLSTKHLGVFPDHVIDMFINGYRLSLTNHGPTPVKEGSKDPRGGIFDAVFTRGDQSKLLTSRHDFKEKNLKEISDLIKKELQEGKALGLSHTYANVRINHVINLWGADFDSNGNLKAIYVTDSDSNASIGMKKYFVGVNSAGKVAISAKEIKEDNIGAQVLGLFTLSTGQDSWNQTN
B6: PRT-161 (protein)
chain: MANQEIRYSEVTPYHVTIVWTDGVKPPTDFIKGEDVFHAPYKAHQGWYDITKTFNGKDDLLCGAATAGNMLHWWFDQNKDQIKRYLEEHPEKQKINFNGEQMFDVKEAIDTKNHQLDSKLFEYFKEKAFPYLSTKHLGVFPDHVIDMFINGYRLSLTNHGPTPVKEGSKDPRGGIFDAVFTRGDQSKLLTSRHDFKEKNLKEISDLIKKELQEGKALGLSHTYANVRINHVINLWGADFDSNGNLKAIYVTDSDSNASIGMKKYFVGVNSAGKVAISAKEIKEDNIGAQVLGLFTLSTGQDSWNQTN
B7: PRT-162 (protein)
chain: MANQEIRYSEVTPYHVTSVWTKGVTPPANFTQGEDVFHAPYVANQGWYDITKTFNGKDDLLCGAATAGNMLHWWFDQNKDQIKRYLEEHPEKQKINFNGEQMFDVKEAIDTKNSQTNSELFNYFKEKAFPYLSTKHLGVFPDHVIDMFINGYRLSLTNHGPTPVKEGSKDPRGGIFDAVFTRGDQSKLLTSRHDFKEKNLKEISDLIKKELTEGKALGLSHTYANVRINHVINLWGADFDSNGNLKAIYVTDSDSNASIGMKKYFVGVNSAGKVAISAKEIKEDNIGAQVLGLFTLSTGQDSWNQTN
B8: PRT-164 (protein)
chain: MANQEIRYSEVTPYHVTSVWTKGVTPPANFTQGEDVFHAPYVANQGWYDITKTFNGKDDLLCGAATAGNMLHWWFDQNKDQIKRYLEEHPEKQKINFNGEQMFDVKEAIDTKNSQENSELFNYFKEKAFPYLSTKHLGVFPDHVIDMFINGYRLSLTNHGPTPVKEGSKDPRGGIFDAVFTRGDQSKLLTSRHDFKEKNLKEISDLIKKELTEGKALGLSHTYANVRINHVINLWGADFDSNGNLKAIYVTDSDSNASIGMKKYFVGVNSAGKVAISAKEIKEDNIGAQVLGLFTLSTGQDSWNQTN
B9: PRT-166 (protein)
chain: MANQEIRYSEVTPYHVTSVWTKGVTPPANFTQGEDVFHAPYVANQGWYDITKAFDGGDDLLCGAATAGNMLHWWFDQNKDQIKRYLEEHPEKQKINFNGEQMFDVKEAIDTKNSQTNSELFNYFKEKAFPYLSTKHLGVFPDHVIDMFINGYRLSLTNHGPTPVKEGSKDPRGGIFDAVFTRGDQSKLLTSRHDFKEKNLKEISDLIKKELTEGKALGLSHTYANVRINHVINLWGADFDSNGNLKAIYVTDSDSNASIGMKKYFVGVNSAGKVAISAKEIKEDNIGAQVLGLFTLSTGQDSWNQTN
B10: PRT-163 (protein)
chain: MANQEIRYSEVTPYHVTSVWTKGVTPPANFTQGEDVFHAPYVANQGWYDITKTFNGKDDLLCGAATAGNMLHWWFDQNKDQIKRYLEEHPEKQKINFNGEQMFDVKEAIDTKNDQTNSELFNYFKEKAFPYLSTKHLGVFPDHVIDMFINGYRLSLTNHGPTPVKEGSKDPRGGIFDAVFTRGDQSKLLTSRHDFKEKNLKEISDLIKKELTEGKALGLSHTYANVRINHVINLWGADFDSNGNLKAIYVTDSDSNASIGMKKYFVGVNSAGKVAISAKEIKEDNIGAQVLGLFTLSTGQDSWNQTN
B11: PRT-165 (protein)
chain: MANQEIRYSEVTPYHVTSVWTKGVTPPANFTQGEDVFHAPYVANQGWYDITKTFNGGDDLLCGAATAGNMLHWWFDQNKDQIKRYLEEHPEKQKINFNGEQMFDVKEAIDTKNSQTNSELFNYFKEKAFPYLSTKHLGVFPDHVIDMFINGYRLSLTNHGPTPVKEGSKDPRGGIFDAVFTRGDQSKLLTSRHDFKEKNLKEISDLIKKELTEGKALGLSHTYANVRINHVINLWGADFDSNGNLKAIYVTDSDSNASIGMKKYFVGVNSAGKVAISAKEIKEDNIGAQVLGLFTLSTGQDSWNQTN
B12: PRT-14 (protein)
chain: MANQEIRYSEVTPYTVTSVWTKGVTPPADFTQGEDVFHAPYIANQGWYDITKTFNGKDDLLCGAATAGNMLHWWFDQNKEQIERYLKKHPEKQKINFNGEQMFDVKEAIDTKDSQTDSELFEYFKEKAFPYLSTKHLGVFPDHVLDMFINGYRLSLTNHGPTPVKEGSKDPRGGIFDAVFTRGDQSKLLTNRHDFKEKTLSEISDLIKKELTEGKALGLSHTYANVRINHVINLWGADFDSEGNLEAIYVTDSDSNASIGMKKYFVGVNSAGKVAISAKEIKEDNIGAQVLGLFTLSTGQDIWNQTN
B13: PRT-18 (protein)
chain: MANQEIRYSEETPYHVTSVWTKGVTPPTNFTQGEDVFHAPYIANQGWYDITKTFNGKDDLLCGAATAGNMLHWWFDQNKEEIEKYLEEHPEKQKINFNGEQMFDVKEVIDTKDSQLDSKLFEYFKEKAFPYLSTKHLGVFPDHVIDMFINGYRLNLTNHGPTPVKEGSKDPRGGIFDAVFTRGDQSKLLTERHDFKEKTLKEISQLIKQELTEGKALGLSHTYANVRINHVINLWGADFDSEGNLEAIYVTDSDSNASIGMKKYFVGVNSAGKVAISAKEIEEDNIGAQVLGLFTLSTGQDIWEQTN

The series addresses pooled human IgG.
Protein B1 showed an Enzyme Activity Endpoint Assay: Fab′2 of 53 ng/µL, an Enzyme Activity Endpoint Assay: Fc of 116 ng/µL, an Enzyme Activity Endpoint Assay: IgG of 34 ng/µL and an Enzyme Activity Endpoint Assay: scIgG of 0 ng/µL.

In turn, B2 yielded an Enzyme Activity Endpoint Assay: Fab′2 of 0 ng/µL, an Enzyme Activity Endpoint Assay: Fc of 0 ng/µL, an Enzyme Activity Endpoint Assay: IgG of 151 ng/µL and an Enzyme Activity Endpoint Assay: scIgG of 0 ng/µL.

Consider B3, for which the Enzyme Activity Endpoint Assay: Fab′2 amounted to 52 ng/µL, the Enzyme Activity Endpoint Assay: Fc was 136 ng/µL, the Enzyme Activity Endpoint Assay: IgG came out at 18 ng/µL and the Enzyme Activity Endpoint Assay: scIgG stood at 17 ng/µL.

Protein B4 displayed an Enzyme Activity Endpoint Assay (purified): Fab'2 of 637 ng/µL, an Enzyme Activity Endpoint Assay (purified): Fc of 184 ng/µL, an Enzyme Activity Endpoint Assay (purified): IgG of 0 ng/µL and an Enzyme Activity Endpoint Assay (purified): scIgG of 0 ng/µL.

With B5, the Enzyme Activity Endpoint Assay (purified): Fab'2 was 642 ng/µL, the Enzyme Activity Endpoint Assay (purified): Fc is 168 ng/µL, the Enzyme Activity Endpoint Assay (purified): IgG turned out to be 0 ng/µL and the Enzyme Activity Endpoint Assay (purified): scIgG stood at 0 ng/µL.

For the protein B6, the Enzyme Activity Endpoint Assay (purified): Fab'2 turned out to be 669 ng/µL, the Enzyme Activity Endpoint Assay (purified): Fc was 172 ng/µL, the Enzyme Activity Endpoint Assay (purified): IgG is 0 ng/µL and the Enzyme Activity Endpoint Assay (purified): scIgG turned out to be 0 ng/µL.

B7 gave an Enzyme Activity Endpoint Assay (purified): Fab'2 of 729 ng/µL, an Enzyme Activity Endpoint Assay (purified): Fc of 196 ng/µL, an Enzyme Activity Endpoint Assay (purified): IgG of 0 ng/µL and an Enzyme Activity Endpoint Assay (purified): scIgG of 0 ng/µL.

B8 displayed an Enzyme Activity Endpoint Assay (purified): Fab'2 of 508 ng/µL, an Enzyme Activity Endpoint Assay (purified): Fc of 203 ng/µL, an Enzyme Activity Endpoint Assay (purified): IgG of 0 ng/µL and an Enzyme Activity Endpoint Assay (purified): scIgG of 85 ng/µL.

Regarding B9, the Enzyme Activity Endpoint Assay (purified): Fab'2 amounted to 597 ng/µL, the Enzyme Activity Endpoint Assay (purified): Fc worked out at 161 ng/µL, the Enzyme Activity Endpoint Assay (purified): IgG was found to be 0 ng/µL and the Enzyme Activity Endpoint Assay (purified): scIgG was found to be 0 ng/µL.

B10 returned an Enzyme Activity Endpoint Assay (purified): Fab'2 of 706 ng/µL, an Enzyme Activity Endpoint Assay (purified): Fc of 184 ng/µL, an Enzyme Activity Endpoint Assay (purified): IgG of 29 ng/µL and an Enzyme Activity Endpoint Assay (purified): scIgG of 0 ng/µL.

In turn, B11 had an Enzyme Activity Endpoint Assay (purified): Fab'2 of 783 ng/µL, an Enzyme Activity Endpoint Assay (purified): Fc of 204 ng/µL, an Enzyme Activity Endpoint Assay (purified): IgG of 0 ng/µL and an Enzyme Activity Endpoint Assay (purified): scIgG of 0 ng/µL.

Consider B12, for which the Enzyme Activity Endpoint Assay: Fab′2 came to 18 ng/µL, the Enzyme Activity Endpoint Assay: Fc stood at 94 ng/µL, the Enzyme Activity Endpoint Assay: IgG stood at 13 ng/µL and the Enzyme Activity Endpoint Assay: scIgG was determined as 43 ng/µL.

With B13, the Enzyme Activity Endpoint Assay: Fab′2 was 44 ng/µL, the Enzyme Activity Endpoint Assay: Fc came to 105 ng/µL, the Enzyme Activity Endpoint Assay: IgG amounted to 12 ng/µL and the Enzyme Activity Endpoint Assay: scIgG was found to be 11 ng/µL.
